Experimental data taken from the supplement of paper PMC12042874.
± gives the uncertainty stated by the source.

Assay: amyloid nucleation score (Sup35N fusion, yeast selection) (log enrichment); library NNK3; higher = more nucleation; inactive = no reads after selection
How it was run: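 For the nucleation score, DiMSum gave the log enrichment of output over input reads, centred on the mode score of non-aggregating sequences. Psi-negative yeast expressing Sup35N fused to peptides of 20 random codons were induced with 100 μM copper sulfate for 24 hours and grown 7 days at 30°C on medium lacking adenine and uracil. Input and output plasmid inserts were Illumina-sequenced, and sequences with under 100 input reads were excluded.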

Amyloid nucleation score, -0.48 ± 1.1:
ADGWFEIFKGYSAPGAHSVL

Amyloid nucleation score, 0.141 ± 0.35:
AFYDNWKGNG

Amyloid nucleation score, -0.643 ± 1.3:
ARHVLAGCKRMLYHFEGRVG

Amyloid nucleation score, 0.082 ± 0.38:
AILYTRHG

Amyloid nucleation score, -0.551 ± 0.55:
ASSSQGRDYVCMSYNFIGGV

Amyloid nucleation score, 0.157 ± 0.27:
CCGEHRVGQWV

Amyloid nucleation score, 1.56 ± 0.066:
CCWYPYEYIINYASVTSQFP

Amyloid nucleation score, 3.11 ± 0.073:
ALASGVVVKLDICIVNNRMY

Amyloid nucleation score, -0.82 ± 1:
AGLLDMARSVDCSGLGYGFF

Amyloid nucleation score, 0.227 ± 0.63:
AALHKRTAAQNVPKELGLTM

Amyloid nucleation score, 2.41 ± 0.087:
ACLCNNCLSLNPTWSCFLCL

Amyloid nucleation score, 0.841 ± 0.13:
AYLSFLLFCCCKTLVWLVLR

Amyloid nucleation score, 0.706 ± 0.17:
AIPSMSSRTLNQVSPIDPDL

Amyloid nucleation score, 2.63 ± 0.066:
AIWLCCQLLLM

Amyloid nucleation score, 1.59 ± 0.095:
ALFLACNH

Amyloid nucleation score, -0.223 ± 0.73:
ALEFRSTENTSSSG

Amyloid nucleation score, 0.649 ± 0.14:
CANQGGCIICDATYQCVIIA

Amyloid nucleation score, 0.733 ± 0.31:
ARLSLWS

Amyloid nucleation score, 1.9 ± 0.075:
AVINVILIIVSECRNSN

Amyloid nucleation score, -0.295 ± 0.71:
ANSDCLFARFDRLFDVSVED

Amyloid nucleation score, 2.07 ± 0.066:
ALTWMRMYALCNIEVNHYST

Amyloid nucleation score, 1.28 ± 0.096:
CCIIYVVRRGE

Amyloid nucleation score, 0.609 ± 0.11:
ASYLNYSFVKIETAVSSNPC

Amyloid nucleation score, -0.148 ± 0.96:
ANKSTIGLFMRLPYCPGSN

Amyloid nucleation score, -0.106 ± 0.43:
AKVQWAV

Amyloid nucleation score, 1.25 ± 0.11:
APHLFLARYLYVCLYCENEW

Amyloid nucleation score, inactive:
AAAMVKAMIDVITGKIPVAE
AAFAREDRCSLLVWYSTCWD
AAHCYNGVLKGVI
AAKYFCNCRGYFAPRLKC
AALVGLRCIAWNYCDTRKRI
AAMKGKSTHPHKGSFSLAIA
AARISRGVPWYGQEMKGRVR
AASNTAFNYLSTRPIMRWLA
ACKLIEFSSQQVFVGFGVHA
ACSRKISSIVATSRLVSTSG
ADCNWVNNVMSVKGLMSVVM
ADLPVIHNNKRLVVVWHWLN
ADMCPVDRRVLDLVSKRAMS
ADRVSVIYMS
AEHHYAFAFTEF
AFCNTIETDMNSAPVFLRAA
AFGLTVFE
AFGLVLLSTLHNASIIPRWF
AFGYKFGSANEAVRMLLSLV
AFKECARRR
AFLACLRLKDLDVVFRSPNR
AFPTVLLHWRN
AFTCYELAGIWRNVTVPCYL
AGFLRDLMCDHLEDDGVPAV
AGKDSPGTDHGGGKNNVRV
AGKHFAHSGLFLVCNYTSRT
AGKYIQNYEVKGCLSAYRAG
AGRDIIMYNRAWFNISAA
AGVNLRTIRVMYRLPIISYL
AGYNYASKSNTLESQTACCS
AHLLETMDTREVFKIR
AIALLSPSDYVHSLGFHMVA
AIAWYLLLHSRRMIWCINCP
AIGRTCGKYMYSFGGLHSSH
AIGYLCSALAKVSLFGKWSV
AIHTSPLIIPPNRFVRYRNR
AIVIRLNSVYYYGCGWLLNR
AKICLFV
AKPIRSSGMFVCTAVYEYVF
AKSVSLHIPTCRYHLTYIAF
AKTSYQRN
ALARELIFLLCMNVRLMGFK
ALCGNHLKCYKYSGAWRAV
ALEAFKRFNLYELGCKGIKV
ALHWKGLQT
ALMRYVFPKWRDCAAMWDSL
ALPPSVF
ALQLRVPDDVWLYVCYSRMN
ALRGWILWW
ALSHKVAVYVYC
ALTAYLVNVWSKYTGMLFSC
ALYNCSCQDNGVQFNK
AMHHSNRSKPVSVIRWMWRC
AMPMATLTVPMWLLILFVTF
ANCINRV
ANHCLCRGSKYLRKRVNLAI
ANKYASRFVYSISDLSWTIW
ANRLC
ANYVYNQTVMCS
APAEIFDLLKSMNGTLCRMG
APIWVFRAYLVFL
APKVQGDCRNTGCAPMVHKK
APVCQWATKARIKCAHWRRT
APWVMLVVSFPRKESRSFGM
AQGKSRPYPLSNSPSGVRRS
AQSEAGDF
AQTYSMCFNITKHPYNSMCG
ARDNDLLNCMMLGLFSRLAF
ARTGYNGYQFRSGRALEITG
ARVRFSLKRSCMLVHA
ASARRCVSVVLIHTAKIHRN
ASASY
ASCQSSIVFRTGSSLATLCD
ASDSCGG
ASGVPIADYTNTLKRWWLSE
ASHYTVSFFSENDAHRGACR
ASIGIRFVDCLYSVLRRWMF
ASNYDYVYMPTWDKDRFSRY
ASPTQVNYFTLVKCMVLRTT
ASSKCYINKRSNPGRRGLYG
ASSLMQ
ASVRTYVDTNHYNLAEILRL
ATCLLIGFGPWMSPAG
ATDKV
ATIGRVRGLKDPHLYQCAFM
ATPFGWDHN
ATQLCCIVCRGLGPGMGEES
ATTDGTVSCVYPRFRLFWCI
AVGLRRPLCMYF
AVICYS
AVISNRFYEEKLYDATYLRL
AVLEMQLTIW
AVQYPSVCWNYKSNSMHC
AVRFNHAYISQKPQRMLL
AVTDLDIFICSG
AVTKNVTERFHMLMPKDWVG
AVYCPINLLAF
AVYQLDMCDLVMVSLDGTVR
AWGSVYVALVWRWNFRCVR
AWSDPSDQQPEQLRVVVDFL
AYIMDSSWWV
AYLIRIGVIRLFLTLCCG
AYLSSTSANF
AYMKGVWFRDEKDISFLIWI
AYNFEHFPDETSAQGHVY
AYRSKLKLCSYWIMGCVHPL
AYVLARFLEDFFMILLWDRW
CADFFQDCAHKIFKNNRITG
CAFPVDGRGTIVVFRHVLEG
CAKDMMCRVYMSLLLHLGVD
CCACWGINHSYGLSTEVSQY
CCFHLFTYCKGKARYTLWSV
CCLEILGTLFN
CCMVYGGYMM
CCRFAVLRRLERSDQKGVWI
CCTSA
CDEVLTDKLVWGREFILWSD
CDFREVTLDY
CDGNMVGSTAIPVSFFPFGR
CDGPMSYMGLGTAGKR
CDLDLLHGWCGNKRMGSCGR
CDLMAKGSCIEQPQPSVAGK
CDVSGSCPGRSPARLKEGSR
CEEPFLNCHFLDY
CELGNIVHS
CEQDTCFIHISRYTTVNNTM
CEQQSRYHMKFMPASLLSFK
CESRP

Amyloid nucleation score, 0.424 ± 0.39:
ADLATYLTDLTERDAILSPP

Amyloid nucleation score, 2.91 ± 0.066:
ASNYYKCCCSNWLCCLMSDR

Amyloid nucleation score, -0.518 ± 1.4:
AILLWNCLHSSVSLLKKAYS

Amyloid nucleation score, -0.233 ± 1.4:
AAETLTRSWLLRSARLMKDG
